koff data for 1 molecule are collected here from article PMC6688529, “Dissecting the cytochrome c2–reaction centre interaction in bacterial photosynthesis using single molecule force spectroscopy” (Biochemical Journal, 2019).

Test [1] has as its target T1, monomeric RC–His12–LH1–PufX core complex (reaction centre light-harvesting 1-PufX) (Rba. sphaeroides, UniProt P0C0Y7 1-260; P0C0Y8 2-282; P0C0Y9 2-308; P0C0X9 1-58; P0C0Y1 1-49; P13402 1-82). Kind of test: PeakForce QNM single-molecule force spectroscopy (AFM); RC–LH1–PufX on the AFM tip, illuminated; pre-reduced cytochrome c2-His6 (and His6-CFP in patterned lines) held on a Ni-NTA SiOx substrate; 10 mM HEPES pH 7.4, 45 mM KCl, room temperature; modulation frequencies 0.5, 1 and 2 kHz. As to conditions: both partners purified.

For test [2], the target named is T1, monomeric RC–His12–LH1–PufX core …. Kind of test: single-molecule dynamic force spectroscopy (AFM); RC–LH1–PufX on the AFM tip via His12/Ni-NTA and a PEG12 linker, kept photo-oxidised by white light; pre-reduced cytochrome c2-His6 held on a Ni-NTA SiOx substrate via His6; 10 mM HEPES pH 7.4, 45 mM KCl, room temperature; retract velocity 200–3000 nm s^-1; the paper calls the values apparent. As to conditions: both partners purified.

B1: cytochrome c2-His6 (natural protein)
chain: QEGDPEAGAKAFNQCQTCHVIVDDSGTTIAGRNAKTGPNLYGVVGRTAGTQADFKGYGEGMKEAGAKGLAWDEEHFVQYVQDPTKFLKEYTGDAKAKGKMTFKLKKEADAHNIWAYLQQVAVRP
notes: cytochrome c2, cloned from Rba. sphaeroides strain 2.4.1; Carries a haem cofactor; pre-reduced with 1 mM sodium dithionite before the measurements; The gene was cloned with its own start; the signal peptide is surmised to be cut in Rba. sphaeroides; also called Cyt c2–His6; cyt c2; source: Rba. sphaeroides ΔcycA strain carrying the gene on pRK415, purified (LDAO-solubilised membrane fraction, …)
As for B1, the koff in test [1] was determined as 198 s⁻¹; in test [2] it was 7.5 s⁻¹.

One may read the koff as a measure of how fast the partners let go of each other.
